Experiments:
[1] = biological target: the molecule itself; test: AUC
[2] = biological target: the molecule itself; test: AUC; remark: listed apart in the source

B1: Sen[K252,255A] (enzyme, UniProt Q5XD01 1-435, looked up)
chain: MSIITDVYAREVLDSRGNPTLEVEVYTESGAFGRGMVPSGASTGEHEAVELRDGDKSRYLGLGTQKAVDNVNNIIAKAIIGYDVRDQQAIDRAMIALDGTPNKGKLGANAILGVSIAVARAAADYLEVPLYTYLGGFNTKVLPTPMMNIINGGSHSDAPIAFQEFMIMPVGAPTFKEGLRWGAEVFHALKKILKERGLVTAVGDEGGFAPKFEGTEDGVETILKAIEAAGYEAGENGIMIGFDCASSEFYDAERAVYDYTKFEGEGAAVRTSAEQVDYLEELVNKYPIITIEDGMDENDWDGWKVLTERLGKRVQLVGDDFFVTNTEYLARGIKENAANSILIKVNQIGTLTETFEAIEMAKEAGYTAVVSHRSGETEDSTIADIAVATNAGQIKTGSLSRTDRIAKYNQLLRIEDQLGEVAQYKGIKSFYNLKK
- stoichiometry N [1]: 8
- percent as octamer [2]: ≥ 95%

B2: Sen[K434,435A] (enzyme, UniProt Q5XD01 1-435, looked up)
chain: MSIITDVYAREVLDSRGNPTLEVEVYTESGAFGRGMVPSGASTGEHEAVELRDGDKSRYLGLGTQKAVDNVNNIIAKAIIGYDVRDQQAIDRAMIALDGTPNKGKLGANAILGVSIAVARAAADYLEVPLYTYLGGFNTKVLPTPMMNIINGGSHSDAPIAFQEFMIMPVGAPTFKEGLRWGAEVFHALKKILKERGLVTAVGDEGGFAPKFEGTEDGVETILKAIEAAGYEAGENGIMIGFDCASSEFYDKERKVYDYTKFEGEGAAVRTSAEQVDYLEELVNKYPIITIEDGMDENDWDGWKVLTERLGKRVQLVGDDFFVTNTEYLARGIKENAANSILIKVNQIGTLTETFEAIEMAKEAGYTAVVSHRSGETEDSTIADIAVATNAGQIKTGSLSRTDRIAKYNQLLRIEDQLGEVAQYKGIKSFYNLAA
- stoichiometry N [1]: 8
- percent as octamer [2]: ≥ 95%

B3: Sen[K252,255,434,435A] (enzyme, UniProt Q5XD01 1-435, looked up)
chain: MSIITDVYAREVLDSRGNPTLEVEVYTESGAFGRGMVPSGASTGEHEAVELRDGDKSRYLGLGTQKAVDNVNNIIAKAIIGYDVRDQQAIDRAMIALDGTPNKGKLGANAILGVSIAVARAAADYLEVPLYTYLGGFNTKVLPTPMMNIINGGSHSDAPIAFQEFMIMPVGAPTFKEGLRWGAEVFHALKKILKERGLVTAVGDEGGFAPKFEGTEDGVETILKAIEAAGYEAGENGIMIGFDCASSEFYDAERAVYDYTKFEGEGAAVRTSAEQVDYLEELVNKYPIITIEDGMDENDWDGWKVLTERLGKRVQLVGDDFFVTNTEYLARGIKENAANSILIKVNQIGTLTETFEAIEMAKEAGYTAVVSHRSGETEDSTIADIAVATNAGQIKTGSLSRTDRIAKYNQLLRIEDQLGEVAQYKGIKSFYNLAA
- stoichiometry N [1]: 8
- percent as octamer [2]: ≥ 95%
